Each block holds one molecule with its values, some of them ahead of it.
Key:
mouse serum albumin = target: T1, mouse serum albumin (Mus musculus, UniProt P07724); assay: SPR binding to mouse serum albumin (Example 18); details: immobilized MSA, 1:1 Langmuir, Table 21
T1 construct: purchased Sigma-Aldrich
Method: SPR multi-trace analyses were performed similarly as described in previous Examples. The following ankyrin repeat proteins analyzed: (i) MAM279 (SEQ ID NO: 11) (with a Glycine-Serine (GS) at its N-terminal end); and (ii) MAM279 (SEQ ID NO: 11), with a Glycine-Serine (GS) at its N-terminal end and a tag (SEQ ID NO: 10) at its C-terminal end (resulting in GS-MAM279-tag (SEQ ID NO: 15)), conjugated to the chelator DOTAM as described in Example 3.
All analytes (3-fold dilution ranging from 600-7.41 nM) were injected in succession for 240 s and dissociation was recorded for 600 s using a constant flow of 25 μl/min (HSA) or 100 μl/min (MSA) (25 μl/min). […] The obtained SPR traces were used to determine the DARPin-serum albumin interaction parameters, and results are summarized in Table 21.

Cyno DLL3-ECD = assay: SPR binding to cyno DLL3-ECD (Example 11); set-up: species or system cynomolgus monkey
Excerpt: The DLL3 target protein from cynomolgus macaque (cyno) was produced similarly to the human target protein. It consisted of the extracellular domain of the cyno DLL3 protein (XP_005589253.1, Gene ID:102115332, residues 27 to 466, purchased from Evitria) linked via an Avi-tag (for site-directed biotinylation), followed by a 3C protease recognition site, to a Fc knob into hole. The target protein was expressed in CHO cells (Chinese hamster ovary cells) by Evitria and purified by a protein A derivative-based affinity chromatography followed by preparative size exclusion chromatography (SEC). The material was up-concentrated in PBS pH 7.4 to 0.53 mg/ml and in vitro biotinylated using recombinant BirA. The final material was monomeric on size exclusion and stored in PBS pH 7.4 at the final concentration of 0.26 mg/ml.
(§1) The binding of 2D ankyrin repeat protein MAM279 as well as of MAM279 conjugated to the chelator DOTAM (the conjugation was performed as described in Example 3) to different target proteins was analyzed by Surface Plasmon Resonance (SPR). Specifically, the proteins analyzed were (i) MAM279 (SEQ ID NO: 11), with a Glycine-Serine (GS) at its N-terminal end and an N-terminal His-tag (SEQ ID NO: 19); and (ii) MAM279 (SEQ ID NO: 11), with a Glycine-Serine (GS) at its N-terminal end and a tag (SEQ ID NO: 10) at its C-terminal end (resulting in GS-MAM279-tag (SEQ ID NO: 15)), conjugated to the chelator DOTAM as described in Example 3.
(§2) A surface plasmon resonance (SPR) assay was used to determine the binding kinetics of the two proteins (i.e. MAM279 with and without conjugation to chelator) to different targets: the Extra-Cellular Domain (ECD) of human DLL3, the ECD of cynomolgus monkey DLL3, the N-Terminal Domain (NTD) only of human DLL3, and the NTD dog DLL3. The data were generated using BioRad ProteOn instrument in SPR running buffer (PBS, pH 7.4 containing 0.005% Tween 20©). […] The chip was coated with biotinylated target to reach a signal intensity of 1516 RU (human ECD), 257 RU (human NTD), 1500 RU (cyno ECD) and 228 RU (dog NTD). All analytes (various concentrations in 3-fold dilutions ranging from 500-6.17 nM) were injected in succession for 240 s (100 μl/min) and dissociation was recorded for 10800 s (100 μl/min). Each injection was followed by a regeneration step with 16 mM H3PO4 for 18 s. […] The obtained SPR traces were used to determine on-rate and off-rate interaction parameters.

[1] = tested on: NCI-H82 lung carcinoma cells; assay: Internalization in NCI-H82 cells; assay type: cell-based, human; details: AF488 label with anti-AF488 quencher, 37° C.
Method: Studies were performed to determine whether a half-life extended DLL3-specific ankyrin repeat protein, as described herein, is internalized upon binding to cells expressing DLL3 on their surface. The specific ankyrin repeat protein tested was MAM279 (SEQ ID NO: 11) (with a Glycine-Serine (GS) at its N-terminal end). […] As a comparison, internalization was also tested for Rova antibody. Internalization was investigated on different cell types expressing DLL3 on their surface, namely SHP-77 lung carcinoma cells, NCI-H82 lung carcinoma cells, and hDLL3-expressing MC38 (MC38-hDLL3) colon carcinoma cells. In brief, DARPin and antibody were pre-incubated and labelled with fluorescently labelled detection antibodies (Fab-AF488) and added to 5×10^4 cells/well in a 96-well plate (100 nM DARPin, 10 nM antibody control) and incubated for 1h on ice. Cells were washed once with PBS and then incubated for different timepoints (0 min, 15 min, 30 min, 1 h and/or 4 h) at 37° C. in PBS with 2% FCS. […] Raw fcs files were exported and analyzed using FlowJo software. MFI values of live AF488-positive cells were exported from FlowJo and plotted using GraphPad Prism software. % internalization was determined by normalizing to non-binding control DARPin (for MAM279) or non-binding isotype control IgG (for Rova). […]

Human DLL3-NTD = target: T2, Human DLL3-NTD (Homo sapiens, UniProt Q9NYJ7); assay: SPR binding to human DLL3-NTD (Example 11); details: immobilized biotinylated target, 1:1 Langmuir, Table 14
T2 construct: comprising only the N-Terminal Domain (NTD, residues 27-189); 6xHis (C); made in house; host or cells: Expi293F cells
T2 sequence (Q9NYJ7 27-189): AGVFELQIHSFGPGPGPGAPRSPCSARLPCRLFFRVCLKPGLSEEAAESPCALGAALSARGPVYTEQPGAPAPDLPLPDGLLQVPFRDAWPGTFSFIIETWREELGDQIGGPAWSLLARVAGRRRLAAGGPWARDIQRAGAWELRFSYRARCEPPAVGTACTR
Method: The truncated human DLL3 construct, comprising only the N-Terminal Domain (NTD, residues 27-189), was designed with a C-terminal 6×His and Avi-tag. Co-expression was carried in Expi293F cells and purification was performed via Ni-NTA affinity chromatography followed by SEC. The final material was monomeric on size exclusion and stored in PBS pH 7.4 at the final concentration of 0.26 mg/ml.
as §1, §2

[2] = SPR, immobilized biotinylated target, 1:1 Langmuir, Table 15

T1 sequence (P07724 25-608): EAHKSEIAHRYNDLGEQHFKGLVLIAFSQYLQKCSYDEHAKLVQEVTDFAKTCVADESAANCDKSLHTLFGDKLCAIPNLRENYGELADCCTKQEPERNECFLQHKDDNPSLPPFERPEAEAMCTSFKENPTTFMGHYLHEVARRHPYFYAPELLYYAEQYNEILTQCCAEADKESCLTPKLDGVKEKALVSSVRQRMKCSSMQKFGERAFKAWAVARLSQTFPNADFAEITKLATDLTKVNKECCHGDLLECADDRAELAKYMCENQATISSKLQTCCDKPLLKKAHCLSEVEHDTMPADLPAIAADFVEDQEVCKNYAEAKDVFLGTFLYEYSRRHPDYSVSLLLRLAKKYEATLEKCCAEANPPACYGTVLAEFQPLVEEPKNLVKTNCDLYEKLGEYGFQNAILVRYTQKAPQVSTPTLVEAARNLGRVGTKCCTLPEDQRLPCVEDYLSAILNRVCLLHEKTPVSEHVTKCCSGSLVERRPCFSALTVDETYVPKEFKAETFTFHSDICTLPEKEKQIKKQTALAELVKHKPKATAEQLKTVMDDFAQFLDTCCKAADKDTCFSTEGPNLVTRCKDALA

- fold lower affinity (higher KD) for cynomolgus monkey DLL3-ECD than for human DLL3-ECD (Cyno DLL3-ECD; SPR KD comparison): about 100 fold
- Kd (Cyno DLL3-ECD; [2]): 22 nM
- Koff Cyno DLL3-ECD (Cyno DLL3-ECD; [2]): 0.000978 s⁻¹
- Kon Cyno DLL3-ECD (Cyno DLL3-ECD; [2]): 44500 M⁻¹ s⁻¹
- Kd (Human DLL3-NTD): 0.263 nM
- Koff Human DLL3-NTD (Human DLL3-NTD): 1.54e-05 s⁻¹
- Kon Human DLL3-NTD (Human DLL3-NTD): 58700 M⁻¹ s⁻¹
B1: MAM279: Two domain (2D) ankyrin repeat protein: serum albumin-specific domain (SEQ ID NO: 7), PT linker, DLL3-specific domain of MAM093 (protein)
chain: DLGKKLLEAARAGQDDEVRELLKAGADVNAKDYFSHTPLHLAARNGHLKIVEVLLKAGADVNAKDFAGKTPLHLAADAGHLEIVEVLLKAGADVNAQDIFGKTPADIAADAGHEDIAEVLQKAAGSPTPTPTTPTPTPTTPTPTPTGSDLGKKLLAAAAQGQDDEVRELLKAGANVNAKDLFGYTPLHLAAWRGHLEIVEVLLKAGADVNAKDAAGETPLHLAAWFGHLEIVEVLLKAGADVNAQDLQGKTPADLAAKEGHEDIAEVLQKAA
modifications: Ankyrin repeat protein (MAM279)
- Kd (mouse serum albumin): 144 nM
- Koff MSA (mouse serum albumin): 0.0383 s⁻¹
- Kon MSA (mouse serum albumin): 267000 M⁻¹ s⁻¹
- internalization [1]: similarly internalized

- Koff Cyno DLL3-ECD (Cyno DLL3-ECD; [2]): 0.00125 s⁻¹
- Kon Cyno DLL3-ECD (Cyno DLL3-ECD; [2]): 36000 M⁻¹ s⁻¹
- Koff Human DLL3-NTD (Human DLL3-NTD): 1.99e-05 s⁻¹
- Kon Human DLL3-NTD (Human DLL3-NTD): 50400 M⁻¹ s⁻¹
B2: MAM279-DOTAM: GS-MAM279-tag (SEQ ID NO: 15) conjugated to the chelator DOTAM via C-terminal tag and maleimide connector, no radionuclide (conjugate)
chain: GSDLGKKLLEAARAGQDDEVRELLKAGADVNAKDYFSHTPLHLAARNGHLKIVEVLLKAGADVNAKDFAGKTPLHLAADAGHLEIVEVLLKAGADVNAQDIFGKTPADIAADAGHEDIAEVLQKAAGSPTPTPTTPTPTPTTPTPTPTGSDLGKKLLAAAAQGQDDEVRELLKAGANVNAKDLFGYTPLHLAAWRGHLEIVEVLLKAGADVNAKDAAGETPLHLAAWFGHLEIVEVLLKAGADVNAQDLQGKTPADLAAKEGHEDIAEVLQKAAGSGSC
modifications: DOTAM chelator via maleimide on C-terminal tag; Ankyrin repeat protein with tag (GS-MAM279-tag)
- Koff MSA (mouse serum albumin): 0.0425 s⁻¹
- Kon MSA (mouse serum albumin): 155000 M⁻¹ s⁻¹

B3: Rova: Rova antibody, DLL3-binding benchmark antibody used as positive control and comparison (antibody, chains of the INN, looked up, V domains shown)
VH: QVQLVQSGAEVKKPGASVKVSCKASGYTFTNYGMNWVRQAPGQGLEWMGWINTYTGEPTYADDFKGRVTMTTDTSTSTAYMELRSLRSDDTAVYYCARIGDSSPSDYWGQGTLVTVSS
VL: EIVMTQSPATLSVSPGERATLSCKASQSVSNDVVWYQQKPGQAPRLLIYYASNRYTGIPARFSGSGSGTEFTLTISSLQSEDFAVYYCQQDYTSPWTFGQGTKLEIK
- internalization [1]: internalization

From US20250332297A1, “DLL3-SPECIFIC BINDING CONSTRUCTS AND THEIR USE IN RADIOTHERAPY” (MOLECULAR PARTNERS AG, priority 2024, published 2025)
